Experimental data: publication PMC9377714, “Unconventional tonicity-regulated nuclear trafficking of NFAT5 mediated by KPNB1, XPOT and RUVBL2” (Journal of Cell Science, 2022)

Experiments:
Settings in all cases: both partners purified
[1] = biological target: T1, His–KPNB1 (UniProt Q14974 1-876); assay: ITC; NFAT5 fragment at 1.5–1.75 mM titrated into 50 μM full-length KPNB1; 50 mM Tris-HCl pH 8.0, 150 mM NaCl; MicroCal PEAQ-ITC
T1 construct: KPNB1 (karyopherin β1, importin β1), full length, in a modified pET 30a vector; In the pull-down it was held on Ni-NTA by the His tag; also called full-length KPNB1; source: E. coli BL21 (DE3), purified (HisTrap HP)

[2] = biological target: T1, His–KPNB1; assay: ITC; NFAT5_(171–253) at 600 μM titrated into 20 μM full-length KPNB1; 10 mM Na2HPO4, 1.8 mM KH2PO4, 2.7 mM KCl, pH 7.4, 150 mM NaCl; MicroCal PEAQ-ITC
[3] = biological target: T1, His–KPNB1; assay: pull-down; His–KPNB1 immobilised on Ni-NTA agarose, GST fusion proteins added, 4°C overnight; washes with 20 mM sodium phosphate, 100 mM NaCl, 40 mM imidazole, 10% glycerol; SDS–PAGE and Coomassie Blue

T1 sequence (Q14974 whole entry, the tested form may be a part): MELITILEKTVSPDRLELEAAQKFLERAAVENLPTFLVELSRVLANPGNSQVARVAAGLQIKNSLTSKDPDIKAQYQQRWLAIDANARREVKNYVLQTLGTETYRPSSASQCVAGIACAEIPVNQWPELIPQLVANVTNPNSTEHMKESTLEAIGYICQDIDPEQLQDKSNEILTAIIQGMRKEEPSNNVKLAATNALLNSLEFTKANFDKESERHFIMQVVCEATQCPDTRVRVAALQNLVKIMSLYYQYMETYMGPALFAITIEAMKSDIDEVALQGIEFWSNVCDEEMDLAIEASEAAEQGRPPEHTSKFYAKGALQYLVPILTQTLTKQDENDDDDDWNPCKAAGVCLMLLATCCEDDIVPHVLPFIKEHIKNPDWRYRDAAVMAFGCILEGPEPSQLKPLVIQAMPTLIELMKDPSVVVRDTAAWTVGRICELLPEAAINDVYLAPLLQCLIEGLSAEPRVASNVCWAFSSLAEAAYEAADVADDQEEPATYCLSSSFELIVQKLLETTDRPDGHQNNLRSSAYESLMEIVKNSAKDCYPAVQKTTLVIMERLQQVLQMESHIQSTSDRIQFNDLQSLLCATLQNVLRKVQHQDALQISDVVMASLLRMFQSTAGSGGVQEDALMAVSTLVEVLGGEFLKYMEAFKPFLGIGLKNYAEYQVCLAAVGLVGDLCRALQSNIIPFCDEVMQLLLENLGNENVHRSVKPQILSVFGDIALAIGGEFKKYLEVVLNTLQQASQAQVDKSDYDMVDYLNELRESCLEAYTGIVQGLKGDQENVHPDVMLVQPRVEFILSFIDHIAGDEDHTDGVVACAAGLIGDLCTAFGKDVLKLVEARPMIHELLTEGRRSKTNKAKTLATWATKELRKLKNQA

| Kd [1] | binding result [3] | Binder | other results |
| --- | --- | --- | --- |
| ~1300 nM | – | NFAT5_(151–216) (domain or fragment, UniProt O94916 151-216, looked up, source: E. coli BL21 (DE3), purified) LLDNSRMSCQDEGCGLESEQSCSMWMEDSPSNFSNMSTSSYNDNTEVPRKSRKRNPKQRPGVKRRD | – |
| – | – | NFAT5_(171–253) (domain or fragment, UniProt O94916 171-253, looked up, source: E. coli BL21 (DE3), purified) SCSMWMEDSPSNFSNMSTSSYNDNTEVPRKSRKRNPKQRPGVKRRDCEESNMDIFDADSAKAPHYVLSQLTTDNKGNSKAGNG | Kd [2]: ~1200 nM |
| – | binds | SCSMWMEDSPSNFSNMSTSSYNDNTEVPRKSRKRNPKQRPGVKRRDCEES (domain or fragment, UniProt O94916 171-220, looked up, source: E. coli BL21 (DE3), purified (glutathione Sepharose); not shown: GST, N-terminal, kept) [GST–NFAT5_(171–220)] | – |
| ~1500 nM | – | SSYNDNTEVPRKSRKRNPKQRPGVKRRD (domain or fragment, UniProt O94916 189-216, looked up, also called NFAT5-cNLS; source: E. coli BL21 (DE3), purified) [NFAT5_(189–216)] | – |
| – | binds | GST–NFAT5_(171–250) (domain or fragment, UniProt O94916 171-250, looked up, also called NFAT5-NLS; source: E. coli BL21 (DE3), purified (glutathione Sepharose); not shown: GST, N-terminal, kept) SCSMWMEDSPSNFSNMSTSSYNDNTEVPRKSRKRNPKQRPGVKRRDCEESNMDIFDADSAKAPHYVLSQLTTDNKGNSKA | – |
| – | binds | GST–NFAT5_(190–250) (domain or fragment, UniProt O94916 190-250, looked up, NFAT5 residues 190-250, cloned at the C terminus of GST in pGEX-4T-1; source: E. coli BL21 (DE3), purified (glutathione Sepharose); not shown: GST, N-terminal, kept) SYNDNTEVPRKSRKRNPKQRPGVKRRDCEESNMDIFDADSAKAPHYVLSQLTTDNKGNSKA | – |
